Test [1] deals with T1, human TNFR2 (Novoprotein, Cat #C830) (human, UniProt P20333 23-257, limits assumed).
T1 construct: construct not described; also called human TNFR2 protein
T1 sequence (looked up): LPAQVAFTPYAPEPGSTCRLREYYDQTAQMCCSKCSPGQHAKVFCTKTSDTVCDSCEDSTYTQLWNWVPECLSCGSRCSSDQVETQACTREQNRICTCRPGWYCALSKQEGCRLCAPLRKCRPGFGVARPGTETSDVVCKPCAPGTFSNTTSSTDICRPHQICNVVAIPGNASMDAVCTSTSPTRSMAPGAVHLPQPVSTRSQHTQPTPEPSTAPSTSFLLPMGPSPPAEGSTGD
Briefly: competition ELISA: antibody titrated against human TNFα-Biotin on coated human TNFR2 (Novoprotein), detection with Streptavidin-HRP [panel A]. The protocol:
1 μg/ml human TNFR2 (Novoprotein, Cat #C830) was pre-coated with 100 μl/well […] in an ELISA plate. All the test TNFR2 antibodies were subjected to 2.5-fold gradient dilution from the highest concentration of 30 μg/ml; the diluted antibodies were mixed with 15 ng/ml human TNFα-Biotin (Acro Biosystem, Cat #TNA-H82E3) in equal volume, respectively; the resulting mixture was added to the ELISA plate at 100 μl/well, and incubated with shaking at room temperature for 2.0 hours. The plate was washed, and then a Streptavidin-HRP working solution (diluted at 1:10000) was added at 100 μl/well, and the mixture was incubated with shaking at room temperature for 40 minutes. The plate was washed again, and then the substrate TMB of HRP was added to develop colour. A stop solution was added to stop the reaction, and then a microplate reader (MD 13) was used to read the absorbance value. The inhibitory curve of an antibody was drawn with antibody concentration as the abscissa and corresponding OD value as the ordinate, and fitted with four parameters (GraphPad Prism9) to calculate the IC50 value. The smaller the IC50 value, the stronger the ability of an antibody to inhibit the binding of human TNFα to human TNFR2. The blocking effect of a humanized antibody was normalized to its corresponding human-murine chimeric antibody WT. […]

Test [2] concerns the target T2, human TNFR2 on the surface of CHO-TNFR2 cells (human, UniProt P20333 23-461).
T2 construct: whole, on cells
T2 sequence (looked up): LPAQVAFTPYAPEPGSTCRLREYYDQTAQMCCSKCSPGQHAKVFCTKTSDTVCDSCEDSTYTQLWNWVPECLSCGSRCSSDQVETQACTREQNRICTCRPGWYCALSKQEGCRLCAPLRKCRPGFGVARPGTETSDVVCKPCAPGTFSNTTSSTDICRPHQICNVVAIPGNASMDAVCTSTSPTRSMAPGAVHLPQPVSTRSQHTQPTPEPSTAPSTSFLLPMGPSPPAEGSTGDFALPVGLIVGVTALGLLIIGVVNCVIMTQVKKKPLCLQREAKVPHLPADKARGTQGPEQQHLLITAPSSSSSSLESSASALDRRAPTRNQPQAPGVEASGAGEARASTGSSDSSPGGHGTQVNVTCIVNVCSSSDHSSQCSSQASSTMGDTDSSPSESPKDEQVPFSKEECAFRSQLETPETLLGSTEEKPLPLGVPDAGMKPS
Put plainly: flow cytometry competition: antibody titrated on CHO-TNFR2 cells, then human TNFα-biotin, detection with PE-streptavidin [panel C]. The protocol:
CHO stable cells highly expressing human TNFR2 were used for the experiment (the same as CHO-TNFR2 in Example 4). The CHO-TNFR2 cells were digested, washed twice with DPBS, then stained with Live/Dead (L/D) (20 minutes at room temperature), and plated at a density of 1×10⁵ cells/50 μl/well. A test anti-TNFR2 antibody was diluted to 6 μg/ml with a staining buffer as the starting concentration: the antibody was subjected to 3.33-fold gradient dilution, with a total of 7 concentration points. The diluted antibody was added to the plated cells at 50 μl/well, and the mixture was mixed well by gentle pipetting, and incubated at 4° C. for 30 minutes. Then the diluted 100 ng/ml of human TNFα-biotin was added at 100 μl/well, and the mixture was mixed well by gentle pipetting, and then incubated at 4° C. for 30 minutes. The mixture was washed twice with a staining buffer, and then 0.12 μg/ml PE-streptavidin (BioLegend, Cat #405204) was added at 100 μl/well; the resulting mixture was incubated at 4° C. for 30 minutes. The mixture was washed twice with a staining buffer, and then 150 μl of staining buffer was added to resuspend the cells; signals were detected by a flow cytometer (Thermo Attune NxT). […]
(In general: Flow cytometry measures light scatter and fluorescence of single cells or particles in a stream.)

B1: 001-WT (antibody, V domains shown)
VH: EVQLQESGGGLVQPGGSLNLSCAASGFAFSTYDLSWVRQTPEKRLEWVAYINNGGISTYYSDTVKGRFTISRDNAKNTLYLQMSSLKSEDTAMYYCVRGPFYGSANYFDYWGQGTTVTVSS
VL: EIVMTQSPASLSLSVGETVTITCRTSESIYSNLPWYQQKQGKSPQLLVYDATKLAEGVPSRFSGSESGTQYSLKINSLQSEDFGTYYCQHFWVTPWTFGGGTKLEIK
notes: Human-murine chimeric wild-type molecule; also called human-murine chimeric antibody WT of #001
In the case of B1, the “IC50 (read off the curve)” value in test [1] is about 0.6 µg/mL.

B2: 224-WT (antibody, V domains shown)
VH: EVQLQESGPEIVKPGASVKLSCTASGFNNKDIYMHWVKQRPEQGLEWIGRIDPATGNTKHDPKFQDKATLSSDTSSNTAYLQFSSLTSEDTAVYYCAHSPYGDFGAMDYWGQGTTVTVSS
VL: DIQMTQSPAIMSASLGERVTMTCTASSSVSSNYLHWYQQKPGSSPKLWIYSTSNLPSGVPARFSGSGSGTSYSLTISSMEAEDAATYYCHQYHRSPWTFGGGTKLEIK
notes: Human-murine chimeric wild-type molecule; also called human-murine chimeric antibody WT of #224
Take B2: in test [2], the “IC50 (read off the curve)” value is about 0.05 µg/mL.
